The target of experiment [1] is T1, VEGFR2-Fc (R&D Systems) (UniProt P35968 20-764).
T1 construct: Bought reagent; not shown: Fc part of the bought fusion; not described
As to the kind of experiment: SPR (Biacore), immobilized VEGFR2-Fc, midscale purified binder.

Experiment [2] concerns the target VEGFR2 fusion protein on Ba/F3 cells (extracellular domain of hVEGFR2 and intracellular domain of hEpoR) (human, UniProt P35968 20-764; P19235 274-508, limits assumed). As to the kind of experiment: cell-based or functional assay.
In experiment [3] the target is T2, human IGF-IR-Fc fusion (human, UniProt P08069 31-932).
T2 construct: range 1-932; If it counts on the precursor, it includes the signal peptide; also called IGF1R-Fc; not shown: hinge and constant regions of human IgG
As to the kind of experiment: SPR (Biacore), IGF-IR-Fc captured on Protein A/G, HTPP purified binder in solution, n=1, KD approximate. (In general: In SPR one partner is held on a chip, and binding of the other changes the refractive index at the surface.)

Experiment [4] deals with T2, human IGF-IR-Fc fusion. The experiment is described as follows: SPR (Biacore), captured IGF1R-Fc, midscale purified binder.
Experiment [5] has as its target T1, VEGFR2-Fc (R&D Systems). As to the kind of experiment: SPR (Biacore), immobilised VEGFR2-Fc, midscale material.
In experiment [6] the target is T2, human IGF-IR-Fc fusion. The experiment is described as follows: SPR (Biacore), captured IGF-IR-Fc, midscale material.
The target in experiment [7] is human IGF-IR on cells (human, UniProt P08069 31-1367). The experiment is described as follows: cell-based or functional assay.
Experiment [8] has as its target T3, VEGFR-2 (KDR) on transfected cells (UniProt P35968 20-1356, limits assumed).
T3 construct: whole, on cells; also called Flk-1
The experiment is described as follows: competitive blocking assay on 293:KDR cells; competitor 200 nM IRDye 800CW-labelled Peg-V2Bshort. As to the method:
Similarly, the pegylated, his-tagged construct 385A08-Fn-V2B-cys was able to block the interaction of a mono-specific ¹⁰Fn3-based VEGFR-2 binder (Peg-V2Bshort, SEQ ID NO: 28) with VEGFR-2 present on 293:KDR cells. […] In particular, in a Ba/F3 assay (described below), the IC₅₀ for the monomeric, non-pegylated VEGFR2 binder V2Bshort (SEQ ID NO: 28) is approximately 0.1-3 nM whereas the IC₅₀ for the monomeric, non-pegylated VEGFR2 binder having SEQ ID NO: 44 (e.g., with an N-terminal extension) is approximately 8-13 nM. […] Both the R⁺ and 293:KDR cell based competitive blocking assays are described in detail in the materials and methods section below.
293:KDR (Sibtech, Brookfield, Conn.) were plated in 96 well plates at a concentration of 25,000 cells per well in DMEM (Invitrogen, Carlsbad, Calif.) containing 10% fetal bovine serum (Hyclone, Logan, Utah). The following day, cells were washed twice in serum free DMEM containing 0.1% BSA (Invitrogen, Carlsbad, Calif.). After the washes, the cells were incubated at 4° C. for 10 minutes in binding buffer (serum free DMEM+0.1% BSA) containing increasing concentrations of VEGFR-2 antagonists or controls. Typical controls included the mono-specific ¹⁰Fn3-based VEGFR2 binder (Peg-V2Bshort, SEQ ID NO: 28) (positive control) or the mono-specific ¹⁰Fn3-based IGF-IR binder (AT580-PEG40, SEQ ID NO: 27) (negative control). […]

Experiment [9] has as its target T2, human IGF-IR-Fc fusion. As to the kind of experiment: SPR (Biacore), IGF1R-Fc captured on Protein A. The procedure: (§1) Affinity data was also measured from midscale and large scale material, for the pegylated version of the tandem construct 385A08-Fn-V2B-cys (SEQ ID NO: 9, with and without his tag). The specific materials and methods for these calculations are described below.
(§2) An alternative method is to capture the IGF—IR-Fc on Protein A. This method was used for calculating the affinity and kinetics of certain versions of the construct 385A08-Fn-V2B-cys (both pegylated and non-pegylated and with or without his tag) from midscale and large scale materials. Specifically, IGF—IR-Fc was captured on Protein A immobilized on a Biacore CM5 sensor chip by amine coupling. VEGFR2-Fc was immobilized directly on a CM5 chip by amine coupling. The affinity and kinetic analysis involved the capture of IGF—IR-Fc on Protein A followed by injection of the tandem adnectin in solution over IGF—IR-Fc and VEGFR2-Fc. The analytical surface was regenerated between samples with glycine pH 1.5. Sensorgrams were obtained at each concentration and were evaluated using Biacore T100 evaluation software to determine the rate constants kₐ (kₒₙ) and kd (koff).

Experiment [10] concerns the target VEGFR-2 in nude mice (in vivo) (UniProt P35918 20-1345, limits assumed). The experiment is described as follows: cell-based or functional assay.
The target in experiment [11] is VEGFR-2 in cynomolgus monkeys (in vivo). The experiment is described as follows: cell-based or functional assay.
Experiment [12] has as its target T1, VEGFR2-Fc (R&D Systems). As to the kind of experiment: SPR (Biacore), VEGFR2-Fc immobilized directly on the chip. The procedure:
as §1, §2
The functionality of the V2B domain was assessed by evaluating a concentration series of the midscale and large scale purification of the tandem construct 385A08-Fn-V2B (pegylated, and non-pegylated versions, his-tag and non-his-tag versions) vs. VEGFR2-Fc that was directly immobilized on a CM5 chip surface (GE, Piscataway, N.J.). VEGFR2-Fc (R&D Systems, MN) was diluted to 12 ug/mL in 50 mM Acetate pH 5.0 for an immobilization level of ˜1300 RU. Varying concentrations of 385A08-Fn-V2B in the solution phase were monitored for association (2 minutes) and dissociation (10 minutes) kinetics at a flow rate of 50 uL/min. Two 30 second injections of 50 mM glycine pH 1.7 were used to regenerate the surface.

Several values for one entry are separate records, joined by “and”; a condition that tells them apart may be missing. Equal entries are not always repeated.

B1: V2B-GS10 (SEQ ID NO: 22)-385A08, his-tagged (designed binder)
chain: MGVSDVPRDLEVVAATPTSLLISWRHPHFPTRYYRITYGETGGNSPVQEFTVPLQPPTATISGLKPGVDYTITVYAVTDGRNGRLLSIPISINYRTEIDKGSGSGSGSGSGSGSGSGSGSVSDVPRDLEVVAATPTSLLISWSARLKVARYYRITYGETGGNSPVQEFTVPKNVYTATISGLKPGVDYTITVYAVTRFRDYQPISINYRTEIDKPSQHHHHHH
notes: also called V2B-GS10-385A08; V2B-GS10-385A08 (Ser tail)
With B1, the koff (in general, a measure of how fast the partners let go of each other) in [1] is 0.000222 s⁻¹; in experiment [4], 0.000204 s⁻¹. In addition, the kon (in general, the rate constant with which the complex forms) in [1] was determined as 382000 M⁻¹ s⁻¹; in experiment [4], 4.18e+06 M⁻¹ s⁻¹. In addition, the “IC50, inhibition of VEGF-A dependent proliferation of Ba/F3 cells” value (from here on “IC50, inhibition … of Ba/F3 cells”) in [2] was determined as 1.9 nM. In addition, the Kd (commonly the constant that tells how readily two partners part at equilibrium) in experiment [3] is ~0.2 nM; in experiment [5], 0.6 nM; in experiment [6], 0.05 nM.

B2: 385A08-Fn-V2B-Cys (designed binder)
single chain: MGVSDVPRDLEVVAATPTSLLISWSARLKVARYYRITYGETGGNSPVQEFTVPKNVYTATISGLKPGVDYTITVYAVTRFRDYQPISINYRTEIDKPSTSTSTVSDVPRDLEVVAATPTSLLISWRHPHFPTRYYRITYGETGGNSPVQEFTVPLQPPTATISGLKPGVDYTITVYAVTDGRNGRLLSIPISINYRTEIDKPCQHHHHHH
Consider B2, for which the “IC50, inhibition … of Ba/F3 cells” value in experiment [2] came to 1.3 nM. Further, the “IC50, inhibition of proliferation of Rh41 cells (n=1)” value (“IC50, inhibition … (n=1)” for short) in experiment [7] came out at 33 nM.

B3: Peg-V2Bshort (designed binder)
chain: GEVVAATPTSLLISWRHPHFPTRYYRITYGETGGNSPVQEFTVPLQPPTATISGLKPGVDYTITVYAVTDGRNGRLLSIPISINYRTEIDKPCQ
modifications: pegylated at position 93 (single cysteine); the tracer form is labelled with IRDye 800CW
B3: the “IC50, inhibition … of Ba/F3 cells” value in [2] was determined as 10 nM. Also, the “IC50, inhibition … (n=1)” value in experiment [7] was > 50 nM. For the same molecule, in [8], the IC50 (usually the midpoint of a concentration-inhibition curve) was ~20 nM.

B4: V2B-GS5-385A08 (designed binder)
single chain: MGVSDVPRDLEVVAATPTSLLISWRHPHFPTRYYRITYGETGGNSPVQEFTVPLQPPTATISGLKPGVDYTITVYAVTDGRNGRLLSIPISINYRTEIDKGSGSGSGSGSVSDVPRDLEVVAATPTSLLISWSARLKVARYYRITYGETGGNSPVQEFTVPKNVYTATISGLKPGVDYTITVYAVTRFRDYQPISINYRTEIDKPSQHHHHHH
notes: also called V2B-GS5-385A08 (Ser tail)
As to B4, the “IC50, inhibition … of Ba/F3 cells” value in [2] was found to be 2 nM. Also, the Kd in [3] was ~0.2 nM.

B5: pegylated, non-his-tag version of 385A08-Fn-V2B-cys (designed binder)
chain: MGVSDVPRDLEVVAATPTSLLISWSARLKVARYYRITYGETGGNSPVQEFTVPKNVYTATISGLKPGVDYTITVYAVTRFRDYQPISINYRTEIDKPSTSTSTVSDVPRDLEVVAATPTSLLISWRHPHFPTRYYRITYGETGGNSPVQEFTVPLQPPTATISGLKPGVDYTITVYAVTDGRNGRLLSIPISINYRTEIDKPCQ
modifications: PEG on the single cysteine at position 203
notes: also called 385A08-Fn-V2B-cys (pegylated, no his-tag); 385A08-Fn-V2B-Cys (non-his tagged)
In the case of B5, in experiment [9], the Kd is 0.982 nM and 1.04 nM; the koff is 0.00027 s⁻¹ and 0.000253 s⁻¹; the kon was 275000 M⁻¹ s⁻¹ and 244000 M⁻¹ s⁻¹. Also, the “plasma IC50, indirect-response PD model, nude mice bearing the A673 tumor” value in [10] was 7000 nM. For the same molecule, the “plasma IC50 (grand mean), PK/PD model, monkeys” value in [11] came out at 159 nM. Also, in [12], the Kd was 17.2 nM and 5.8 nM; the koff is 0.000115 s⁻¹ and 7.49e-05 s⁻¹; the kon was 6670 M⁻¹ s⁻¹ and 13000 M⁻¹ s⁻¹.

B6: AT580-PEG20-AT580 (designed binder)
chain: MGVSDVPRDLEVVAATPTSLLISWSARLKVARYYRITYGETGGNSPVQEFTVPKNVYTATISGLKPGVDYTITVYAVTRFRDYQPISINYRTEIDKPCQ
modifications: the two chains are joined by a 20 kDa PEG at position 98 (cysteine) of each; labelled with IRDye 800CW in the competition assay
Turning to B6, the “IC50, inhibition … (n=1)” value in experiment [7] worked out at 0.07 nM.

B7: 385A08-GS5-V2B (designed binder)
single chain: MGVSDVPRDLEVVAATPTSLLISWSARLKVARYYRITYGETGGNSPVQEFTVPKNVYTATISGLKPGVDYTITVYAVTRFRDYQPISINYRTEIDKGSGSGSGSGSVSDVPRDLEVVAATPTSLLISWRHPHFPTRYYRITYGETGGNSPVQEFTVPLQPPTATISGLKPGVDYTITVYAVTDGRNGRLLSIPISINYRTEIDKPSQHHHHHH
notes: also called 385A08-GS5-V2B (Ser tail)
With B7, the “IC50, inhibition … of Ba/F3 cells” value in experiment [2] was determined as 1 nM. In addition, the “IC50, inhibition … (n=1)” value in experiment [7] came out at 40 nM. Further, the Kd in experiment [3] was ~0.3 nM.

B8: V2B-Fn-385A08-Cys (designed binder)
single chain: MGVSDVPRDLEVVAATPTSLLISWRHPHFPTRYYRITYGETGGNSPVQEFTVPLQPPTATISGLKPGVDYTITVYAVTDGRNGRLLSIPISINYRTEIDKPSTSTSTVSDVPRDLEVVAATPTSLLISWSARLKVARYYRITYGETGGNSPVQEFTVPKNVYTATISGLKPGVDYTITVYAVTRFRDYQPISINYRTEIDKPCQHHHHHH
As for B8, the “IC50, inhibition … of Ba/F3 cells” value in experiment [2] was 0.8 nM. The “IC50, inhibition … (n=1)” value in experiment [7] was determined as 6 nM.

B9: V2B-Fn-385A08 (designed binder)
single chain: MGVSDVPRDLEVVAATPTSLLISWRHPHFPTRYYRITYGETGGNSPVQEFTVPLQPPTATISGLKPGVDYTITVYAVTDGRNGRLLSIPISINYRTEIDKPSTSTSTVSDVPRDLEVVAATPTSLLISWSARLKVARYYRITYGETGGNSPVQEFTVPKNVYTATISGLKPGVDYTITVYAVTRFRDYQPISINYRTEIDKPSQHHHHHH
notes: also called V2B-Fn-385A08 (Ser tail)
Regarding B9, the “IC50, inhibition … of Ba/F3 cells” value in experiment [2] came to 2.2 nM. The Kd in [3] was ~0.2 nM.

B10: 385A08-GS10 (SEQ ID NO: 22)-V2B, his-tagged (designed binder)
chain: MGVSDVPRDLEVVAATPTSLLISWSARLKVARYYRITYGETGGNSPVQEFTVPKNVYTATISGLKPGVDYTITVYAVTRFRDYQPISINYRTEIDKGSGSGSGSGSGSGSGSGSGSVSDVPRDLEVVAATPTSLLISWRHPHFPTRYYRITYGETGGNSPVQEFTVPLQPPTATISGLKPGVDYTITVYAVTDGRNGRLLSIPISINYRTEIDKPSQHHHHHH
notes: also called 385A08-GS10-V2B; 385A08-GS10-V2B (Ser tail)
B10: the koff in experiment [1] amounted to 0.000193 s⁻¹; in experiment [4], 0.000308 s⁻¹. For the same molecule, the values for the kon in [1] and in [4] were 414000 M⁻¹ s⁻¹ and 7.72e+06 M⁻¹ s⁻¹, respectively. Further, the “IC50, inhibition … of Ba/F3 cells” value in experiment [2] came out at 1.2 nM. The “IC50, inhibition … (n=1)” value in experiment [7] was found to be 27 nM. Also, the Kd in [3] is ~0.3 nM; in experiment [5], 0.5 nM; in experiment [6], 0.04 nM.

Source of the values: US20180265572A1 (Bristol-Myers Squibb, published 2018).
